Measured values taken from patent publication US8716437B2 (priority 2007, dated 2014).
Values joined by “and” are separate entries in the source; they are usually repeats but may differ in a detail not shown here. Identical values can stand only once. Where no end group is shown, it is not given here.

Experiments:
guinea pig ileum = conditions: J Pharmacol Exp Ther. 1999; cited from earlier work
Kv1.2 = target: T1, Kv1.2 (Rattus norvegicus, UniProt P63142); assay: Two electrode voltage clamp, Xenopus oocytes, Kv1.2; format: cell-based
T1 construct: expressed in transfected cells; host or cells: Xenopus laevis oocytes (cRNA injection)
T1 sequence (P63142 whole entry): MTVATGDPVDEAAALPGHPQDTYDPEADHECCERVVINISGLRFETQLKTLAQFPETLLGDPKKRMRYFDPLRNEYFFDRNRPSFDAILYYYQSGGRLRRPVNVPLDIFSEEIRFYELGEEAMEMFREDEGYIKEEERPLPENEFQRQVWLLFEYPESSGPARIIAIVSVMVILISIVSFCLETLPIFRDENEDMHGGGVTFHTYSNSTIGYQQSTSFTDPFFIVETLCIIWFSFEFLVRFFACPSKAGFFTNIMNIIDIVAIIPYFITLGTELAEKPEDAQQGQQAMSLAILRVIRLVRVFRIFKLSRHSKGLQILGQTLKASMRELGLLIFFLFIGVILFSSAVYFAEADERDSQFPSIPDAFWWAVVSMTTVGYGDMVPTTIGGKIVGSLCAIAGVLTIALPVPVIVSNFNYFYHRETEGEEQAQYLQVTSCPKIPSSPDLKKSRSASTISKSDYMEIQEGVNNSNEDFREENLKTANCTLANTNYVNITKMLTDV
Protocol: (§1) To examine the effect of mokatoxin-1 on activity of potassium ion channels, cDNA encoding Rattus Kv1.1 (NCBI accession number NM_173095), Rattus Kv1.2 (NM_012970), Homo Kv1.3 (NM_002232), or Mus BK (NM_010610) were subcloned into oocyte expression vectors based on PCR3.1 and pGEM. cRNA synthesis was performed with T7 polymerase and the mMessageMachine Kit (Ambion, Austin, Tex.) according to manufacturers instructions. cRNA concentrations were determined spectroscopically. For two electrode voltage clamp recordings oocytes were extracted from Xenopus laevis and defoliculated with Collagenase Type 2 (Worthington, Lakewood, N.J.). Oocytes were maintained in ND91 solution containing 2 mM KCl, 91 mM NaCl, 1 mM MgCl2, 1.8 mM CaCl2, and 5 mM HEPES, pH 7.5, supplemented with 1% Penicillin/Streptomycin (Cellgro, Hemdon, Va.) and 0.1% Gentamycin sulfate (Gibco, Grand Island, N.Y.)) at 16° C. Stage V and VI oocytes were injected with 8 pg to 4 ng cRNA, and currents recorded 1 to 4 days later.
(§2) For dose-response measurements of toxin block of Kv1.1, Kv1,2, or Kv1.3 peak currents were recorded during a 500 ms step to 0 mV from a holding voltage of −100 mV, followed by a 200 ms step to −135 mV every 30 s. To determine the kinetics of toxin block oocytes were held at −100 mV and stepped to the test voltage of 0 mV for 100 ms followed by a 200 ms duration step to −135 mV every 2 s. BK currents were recorded during a 50 ms step to +60 mV from a holding voltage of −80 mV, followed by a 40 ms step to −100 mV every 3 s. The perfusion solution contained 2 mM KCl, 96 mM NaCl, 1 mM MgCl2, 1.8 mM CaCl2, 5 mM HEPES, pH 7.5 and 0.1% fatty acid ultra-free BSA fraction V (Roche Diagnostics Corporation, Indianapolis, Ind.). Data acquisition and processing was performed with an oocyte clamp OC-725B (Warner Instruments Corporation, Hamden, Conn.), pCLAMP (Axon, Sunnyvale, Calif.), IGOR Pro (WaveMetrics, Lake Oswego, Oreg.), and Origin6.1 (OriginLab Corporation, Northampton, Mass.) softwares. The equilibrium dissociation rates (KD) for block of Kv1.1, Kv1.2, and Kv1.3 by mokatoxin-1 were determined by fitting the dose-response data and kon and koff were calculated as described by Goldstein and Miller, 1993 (Biophys J. 1993 65 (4):1613-1619).

Kv1.3 = Kv1.3 (Homo sapiens, UniProt P22001); assay: Two electrode voltage clamp, Xenopus oocytes, Kv1.3; format: cell-based; design: expressed in transfected cells; host or cells: Xenopus laevis oocytes (cRNA injection)
Kv1.3, sequence (P22001 whole entry): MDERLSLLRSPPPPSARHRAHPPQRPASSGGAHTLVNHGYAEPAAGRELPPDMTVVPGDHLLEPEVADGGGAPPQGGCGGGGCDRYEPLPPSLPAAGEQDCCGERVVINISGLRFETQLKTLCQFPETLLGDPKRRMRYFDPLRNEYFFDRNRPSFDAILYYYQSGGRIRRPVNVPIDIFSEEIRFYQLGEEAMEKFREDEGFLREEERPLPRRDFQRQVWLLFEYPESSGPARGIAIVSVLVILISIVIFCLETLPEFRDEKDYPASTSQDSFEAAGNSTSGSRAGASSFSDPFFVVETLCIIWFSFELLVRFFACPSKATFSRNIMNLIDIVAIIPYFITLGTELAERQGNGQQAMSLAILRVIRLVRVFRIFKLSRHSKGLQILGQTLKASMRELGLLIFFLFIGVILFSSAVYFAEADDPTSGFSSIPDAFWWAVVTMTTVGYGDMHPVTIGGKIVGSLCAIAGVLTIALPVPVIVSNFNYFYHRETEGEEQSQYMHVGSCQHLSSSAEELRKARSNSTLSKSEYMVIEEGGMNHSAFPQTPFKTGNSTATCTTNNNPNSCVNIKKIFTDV
Description: Thereafter, MK-1 was synthesized. […] The blocking of […] by MK-1 is represented by filled circles; the blocking of Kv1.2 by MK-1 is represented by filled diamonds; and the blocking of Kv1.1 by MK-1 is represented by filled triangles.
as §1, §2

BK = target: T2, BK (Mus musculus, UniProt Q08460); assay: Two electrode voltage clamp, Xenopus oocytes, BK; format: cell-based
T2 construct: expressed in transfected cells; host or cells: Xenopus laevis oocytes (cRNA injection)
T2 sequence (Q08460 whole entry): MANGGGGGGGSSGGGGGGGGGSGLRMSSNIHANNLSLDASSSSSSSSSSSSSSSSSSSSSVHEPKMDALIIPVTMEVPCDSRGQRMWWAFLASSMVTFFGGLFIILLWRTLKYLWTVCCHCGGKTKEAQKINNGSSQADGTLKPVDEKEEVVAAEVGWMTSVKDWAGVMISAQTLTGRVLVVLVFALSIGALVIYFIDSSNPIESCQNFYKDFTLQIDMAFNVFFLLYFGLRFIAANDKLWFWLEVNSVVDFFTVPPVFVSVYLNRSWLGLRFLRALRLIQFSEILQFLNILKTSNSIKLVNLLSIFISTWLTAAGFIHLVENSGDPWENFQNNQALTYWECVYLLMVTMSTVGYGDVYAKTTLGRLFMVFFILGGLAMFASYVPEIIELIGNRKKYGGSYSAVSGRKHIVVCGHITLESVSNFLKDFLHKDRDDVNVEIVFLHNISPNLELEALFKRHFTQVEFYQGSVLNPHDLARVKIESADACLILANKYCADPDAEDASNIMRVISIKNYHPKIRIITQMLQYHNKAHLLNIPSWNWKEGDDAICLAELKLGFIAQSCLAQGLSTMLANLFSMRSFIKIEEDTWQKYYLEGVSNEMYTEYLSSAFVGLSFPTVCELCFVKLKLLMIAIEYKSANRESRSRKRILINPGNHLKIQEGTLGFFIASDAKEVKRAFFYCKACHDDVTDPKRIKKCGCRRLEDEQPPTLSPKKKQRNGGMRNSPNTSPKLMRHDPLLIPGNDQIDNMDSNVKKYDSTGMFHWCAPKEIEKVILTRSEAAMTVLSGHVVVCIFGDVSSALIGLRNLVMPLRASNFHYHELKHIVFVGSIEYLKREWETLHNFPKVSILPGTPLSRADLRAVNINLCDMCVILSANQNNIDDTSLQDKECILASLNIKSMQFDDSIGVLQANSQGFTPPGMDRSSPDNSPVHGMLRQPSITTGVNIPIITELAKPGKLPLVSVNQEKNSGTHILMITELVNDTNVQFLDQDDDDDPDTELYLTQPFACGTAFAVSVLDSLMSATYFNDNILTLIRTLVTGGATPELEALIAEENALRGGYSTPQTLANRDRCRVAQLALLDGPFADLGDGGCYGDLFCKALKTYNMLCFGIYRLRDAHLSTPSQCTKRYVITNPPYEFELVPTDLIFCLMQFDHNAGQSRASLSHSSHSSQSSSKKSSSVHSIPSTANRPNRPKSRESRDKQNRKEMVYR
Protocol: as §1, §2

Kv1.1 = target: T3, Kv1.1 (Rattus norvegicus, UniProt P10499); assay: Two electrode voltage clamp, Xenopus oocytes, Kv1.1; format: cell-based
T3 construct: expressed in transfected cells; host or cells: Xenopus laevis oocytes (cRNA injection)
T3 sequence (P10499 whole entry): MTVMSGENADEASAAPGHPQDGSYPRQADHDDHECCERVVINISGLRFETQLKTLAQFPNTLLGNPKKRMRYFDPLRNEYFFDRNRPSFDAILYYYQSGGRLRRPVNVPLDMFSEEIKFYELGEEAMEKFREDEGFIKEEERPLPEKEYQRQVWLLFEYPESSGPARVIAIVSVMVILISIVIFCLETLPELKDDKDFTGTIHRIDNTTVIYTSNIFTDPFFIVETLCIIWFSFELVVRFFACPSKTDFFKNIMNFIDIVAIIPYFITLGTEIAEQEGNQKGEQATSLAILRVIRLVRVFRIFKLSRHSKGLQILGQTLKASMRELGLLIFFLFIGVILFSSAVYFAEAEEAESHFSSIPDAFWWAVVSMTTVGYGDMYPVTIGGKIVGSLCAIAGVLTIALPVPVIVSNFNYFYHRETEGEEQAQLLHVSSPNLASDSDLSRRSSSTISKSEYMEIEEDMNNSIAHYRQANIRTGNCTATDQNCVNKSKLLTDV
Protocol: as §1, §2

[1] = target: KcsA carrying a segment of the Kv1.3 pore loop (KcsA-1.3)
[2] = target: Kv1.3 K+ channel, wild-type, species not stated
[3] = target: BK channel, species not stated
[4] = target: Kv1.2 K+ channel, species not stated
[5] = target: Kv1.1 K+ channel, species not stated
[6] = target: Kv1.3 K+ channel, wild-type, species not stated; remark: listed apart in the source
[7] = target: KcsA carrying a segment of the Kv1.3 pore loop (KcsA-1.3); remark: listed apart in the source
[8] = target: Kv1.3 K+ channel, wild-type, species not stated; assay: one round of panning of KTX and nonspecific phages on cells expressing Kv1.3
[9] = target: Kv1.3 K+ channel, wild-type, species not stated; remark: listed apart in the source
[10] = target: Kv1.3 K+ channel, wild-type, species not stated; assay: phage panning on HEK cells
[11] = target: Kv1.3 K+ channel, wild-type, species not stated; remark: listed apart in the source
[12] = target: Kv1.3 K+ channel, wild-type, species not stated; remark: listed apart in the source
[13] = target: Kv1.3 K+ channel, wild-type, species not stated; assay: phage panning on COS cells
[14] = target: KcsA carrying a segment of the Kv1.3 pore loop (KcsA-1.3); assay: panning of a 1:99 mixture of Shk and Camel VHH phages on KcsA-1.3, n = 17-20
human Kv1.3 (Homo) [15] = target: human Kv1.3 (Homo) (UniProt P22001)
Rattus Kv1.1 (Rattus) = Rattus Kv1.1 (Rattus) (UniProt P10499)
Rattus Kv1.2 (Rattus) = Rattus Kv1.2 (Rattus) (UniProt P63142)
[16] = target: Mus BK (mouse big conductance calcium-activated K channel) (Mus) (UniProt Q08460)
human Kv1.3 (Homo) [17] = target: human Kv1.3 (Homo) (UniProt P22001); remark: listed apart in the source
[18] = target: KcsA carrying a segment of the Kv1.3 pore loop (KcsA-1.3); assay: library panning on immobilised KcsA-1.3
[19] = target: KcsA carrying a segment of the Kv1.3 pore loop (KcsA-1.3); remark: listed apart in the source
Rattus Kv1.1 = Rattus Kv1.1 (Rattus, UniProt P10499); assay: cell-based or functional assay
[20] = target: Mus BK (mouse big conductance calcium-activated K channel) (Mus, UniProt Q08460); assay: cell-based or functional assay
human Kv1.3 = human Kv1.3 (Homo, UniProt P22001); assay: cell-based or functional assay
Rattus Kv1.2 = Rattus Kv1.2 (Rattus, UniProt P63142); assay: cell-based or functional assay

CC[C@H](C)[C@@H]1NC(=O)[C@@H]2CSSC[C@@H]3NC(=O)[C@H](CCCCN)NC(=O)[C@H](CCCNC(=N)N)NC(=O)[C@H](CC(N)=O)NC(=O)[C@H](CCSC)NC(=O)[C@H](CSSC[C@H](NC(=O)[C@H](CO)NC(=O)[C@@H](NC(=O)[C@H](CC(N)=O)NC(=O)[C@@H](NC(=O)[C@@H]4CCCN4C(=O)[C@@H](NC(=O)CN)C(C)C)[C@@H](C)CC)C(C)C)C(=O)N[C@@H]([C@@H](C)O)C(=O)NCC(=O)N[C@@H](CO)C(=O)N4CCC[C@H]4C(=O)N[C@@H](CCC(N)=O)C(=O)N2)NC(=O)[C@H](CCCCN)NC(=O)CNC(=O)[C@H](Cc2ccccc2)NC(=O)[C@H](CCCNC(=N)N)NC(=O)[C@H](CCSC)NC(=O)CNC(=O)[C@H](C)NC(=O)[C@H](CC(=O)O)NC(=O)[C@H](CCCCN)NC(=O)[C@H](CSSC[C@@H](C(=O)N[C@H](C(=O)N2CCC[C@H]2C(=O)N[C@@H](CCCCN)C(=O)O)[C@@H](C)O)NC(=O)[C@H](Cc2c[nH]cn2)NC3=O)NC(=O)[C@@H]2CCCN2C(=O)[C@H](CCCCN)NC1=O [AgTX2, agitoxin-2]
ileum contractions (guinea pig ileum): contractions
IC50 (Kv1.2): 26.8 nM
IC50 (Kv1.3): 0.004 nM
IC50 (BK): ~1150 nM
IC50 (Kv1.1): 0.04 nM

Dendroaspis natriuretic peptide (DNP) phage (from UniProt P28374)
Output (% Ligands) [1]: 0%

Kaliotoxin-1 (KTX) (peptide)
approximate IC50 [2]: 0.5 nM
approximate IC50 [3]: 5 nM
approximate IC50 [4]: 1.4 nM
approximate IC50 [5]: 0.1 nM

Kaliotoxin-1 phage (KTX-phage)
% of phage after the 2nd panning [6]: 40%
Fold Enrichment [7]: 3.6 fold
Fold Enrichment [8]: 4.3 fold and 5.2 fold
Output (% Ligands) [1]: 100%
Kv1.3 current, whole-cell patch-clamp [9]: 35%
fold enrichment (Kv1.3 transfected against vector cells) [10]: 20 fold
% of recovered phage, 2nd round [11]: 0%
% of recovered phage, 3rd round [11]: 58%
OUTPUT KTX (%) [12]: 22% and 30% and 26%
fold enrichment (Kv1.3 transfected against vector cells) [13]: 10 fold

Shk phage (sea anemone Stichodactyla helianthus ShK toxin on phage)
% phages, OUTPUT [14]: 20%

agitoxin-2 (AgTx2) (peptide)
approximate IC50 [2]: 0.004 nM
approximate IC50 [3]: 1150 nM
approximate IC50 [4]: 26.8 nM
approximate IC50 [5]: 0.04 nM

charybdotoxin (CTX) (peptide)
approximate IC50 [2]: 2.5 nM
approximate IC50 [3]: 3 nM
approximate IC50 [4]: 5.6 nM
approximate IC50 [5]: 1500 nM

fasciculin-2 phage (from UniProt P0C1Z0)
Output (% Ligands) [1]: 0%

mokatoxin-1 (peptide)
approximate IC50 [2]: 3 nM
approximate IC50 [3]: > 1000 nM
approximate IC50 [4]: 680 nM
approximate IC50 [5]: > 1000 nM
IL-2, TNF-α and IFN-γ secretion by CD3/CD28 activated human T cells (ELISA) (human Kv1.3 (Homo) [15]): 50%
Ki (block of channel current) (Rattus Kv1.1 (Rattus)): > 1000 nM
Ki (block of channel current) (Rattus Kv1.2 (Rattus)): 620 nM
Koff (block of channel current) (Rattus Kv1.2 (Rattus)): 0.16 [s]^-1
Kon (block of channel current) (Rattus Kv1.2 (Rattus)): 260000 [M · s]^-1
Ki (block of channel current) [16]: > 1000 nM
Ki (block of channel current) (human Kv1.3 (Homo) [17]): 1 nM
Koff (block of channel current) (human Kv1.3 (Homo) [17]): 0.059 [s]^-1
Kon (block of channel current) (human Kv1.3 (Homo) [17]): 3.6e+07 [M · s]^-1

mokatoxin-1-phage
% of phage after the 2nd panning [6]: 15%
% of the eluted phage after two rounds of panning [18]: 16.6%
% of the phage isolated after two rounds of selection [19]: 60%

sarafotoxin S6b phage (from UniProt P13208)
Output (% Ligands) [1]: 0%

ZFTNVSCTTSKECWSVCQRLHNTSRGKCMNKKCRCYS (Z printed as first residue in Table 2) [charybdotoxin (CTX)]
Ki (block of channel current) (Rattus Kv1.1): > 1000 nM
Ki (block of channel current) [20]: 5 nM

GVEINVKCSGSPQCLKPCKDAGMRFGKCMNRKCHCTPK [Kaliotoxin-1 (KTX)]
Ki (block of channel current) (human Kv1.3): 0.008 nM
Koff (block of channel current) (human Kv1.3): 0.007 [s]^-1
Kon (block of channel current) (human Kv1.3): 8e+08 [M · s]^-1
Ki (block of channel current) (Rattus Kv1.2): 20 nM
Koff (block of channel current) (Rattus Kv1.2): 0.21 [s]^-1
Kon (block of channel current) (Rattus Kv1.2): 1.3e+07 [M · s]^-1
Ki (block of channel current) (Rattus Kv1.1): 1.1 nM
Koff (block of channel current) (Rattus Kv1.1): 0.009 [s]^-1
Kon (block of channel current) (Rattus Kv1.1): 3e+07 [M · s]^-1
Ki (block of channel current) [20]: 1.6 nM
Koff (block of channel current) [20]: 0.0211 [s]^-1
Kon (block of channel current) [20]: 21000 [M · s]^-1

GVPINVSCTGSPQCIKPCKDAGMRFGKCMNRKCHCTPK (ends and bridges not checked; cysteine pairing not given here) [agitoxin-2 (AgTx2)]
Ki (block of channel current) (human Kv1.3): 0.041 nM
Ki (block of channel current) (Rattus Kv1.2): 3.4 nM
Ki (block of channel current) (Rattus Kv1.1): 0.17 nM
